# Laboratory results: patent US20250388672A1
# How the values were obtained:
# [1] = molecular target: human TCR/CD3 complex on purified primary human T cells (human); experiment: flow cytometry on primary human T cells
# [2] = molecular target: human CD3 expressed on HEK293H cells (human) (UniProt P20963); experiment: flow cytometry on HEK293H cells expressing human CD3
# [3] = molecular target: human TCR(2IAN)/CD3 expressed on HEK293H cells (human) (UniProt P04234); experiment: flow cytometry on HEK293H cells expressing human TCR(2IAN)/CD3
# Chain of human CD3 expressed on HEK293H cells (human) (chain, as listed by the source limits assumed, chain 1 of 4): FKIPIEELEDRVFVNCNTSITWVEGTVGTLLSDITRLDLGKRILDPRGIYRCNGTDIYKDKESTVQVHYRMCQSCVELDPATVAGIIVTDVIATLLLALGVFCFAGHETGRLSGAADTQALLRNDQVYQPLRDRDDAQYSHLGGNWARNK
# Chain of human CD3 expressed on HEK293H cells (human) (chain, as listed by the source limits assumed, chain 2 of 4): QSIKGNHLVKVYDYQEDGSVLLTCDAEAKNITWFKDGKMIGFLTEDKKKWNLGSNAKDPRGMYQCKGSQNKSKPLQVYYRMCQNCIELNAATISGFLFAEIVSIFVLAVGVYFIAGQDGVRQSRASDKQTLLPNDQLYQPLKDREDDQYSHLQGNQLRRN
# Chain of human CD3 expressed on HEK293H cells (human) (chain, as listed by the source limits assumed, chain 3 of 4): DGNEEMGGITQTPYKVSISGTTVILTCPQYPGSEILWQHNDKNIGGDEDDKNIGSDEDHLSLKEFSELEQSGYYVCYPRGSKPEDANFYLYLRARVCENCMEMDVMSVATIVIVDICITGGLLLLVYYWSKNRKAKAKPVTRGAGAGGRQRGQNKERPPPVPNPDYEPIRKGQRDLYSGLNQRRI
# Chain of human CD3 expressed on HEK293H cells (human) (P20963 22-164 limits assumed, chain 4 of 4): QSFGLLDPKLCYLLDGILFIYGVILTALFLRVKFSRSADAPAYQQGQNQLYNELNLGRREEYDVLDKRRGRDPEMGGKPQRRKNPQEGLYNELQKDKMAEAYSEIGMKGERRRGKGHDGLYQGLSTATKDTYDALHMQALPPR
# Chain of human TCR/CD3 complex on purified primary human T cells (human) (delta, as listed by the source limits assumed, form in doubt, chain 1 of 4): as the sequence (chain, as listed by the source limits assumed, chain 1 of 4) above
# Chain of human TCR/CD3 complex on purified primary human T cells (human) (gamma, as listed by the source limits assumed, form in doubt, chain 2 of 4): as the sequence (chain, as listed by the source limits assumed, chain 2 of 4) above
# Chain of human TCR/CD3 complex on purified primary human T cells (human) (epsilon, as listed by the source limits assumed, form in doubt, chain 3 of 4): as the sequence (chain, as listed by the source limits assumed, chain 3 of 4) above
# Chain of human TCR/CD3 complex on purified primary human T cells (human) (zeta, as listed by the source limits assumed, form in doubt, chain 4 of 4): as the sequence (P20963 22-164 limits assumed, chain 4 of 4) above
EC50 [1],EC50 [2],MCF at 1 µM/top [2],EC50 [3],MCF at 1 µM/top [3],Binder
> 100 nM,–,–,–,–,T017000016 (bispecific antibody) EVQLVESGGGLVQPGGSLRLSCTFSGGTFSSYTMGWFRQAPGKEREFVAEVRWGGVTTYSNSLKDRFSISEDSVKNAVYLQMNSLKPEDTAVYYCAAVRQMYMTVVPDYWGQGTLVTVSSGGGGSGGGGSGGGGSGGGGSGGGGSGGGGSGGGGSEVQLVESGGGSVQAGGSLRLSCAASGRTFSTNPMGWFRQVPGKERELIAAVRWADGNTFYADSVKGRFTISRDNAKKTVYLQMNSLKSEDTATYYCAAGRPWSAYHSPAEYVHWGQGTLVTVSSGAADYKDHDGDYKDHDIDYKDDDDKGAAHHHHHH
–,> 100 nM,2850 MCF,> 100 nM,4950 MCF,"T0170052G04 (VHH, not shown: small tags and cut ends) VHH: EVQLVESGGGAVQPGGSLRLSCAASGIRISRNMMGWFRQAPGKQRDLVARITPGGDTYYVDSVKGRFSISKDNAKNTVYLQMNSLKPEDTAVYYCNSYSTLGSWGQGTQVTVSS"
–,> 100 nM,3300 MCF,> 100 nM,15900 MCF,"T0170011A10 (VHH, not shown: small tags and cut ends) VHH: EVQLVESGGGLVQGGGSLSLSCAASGRTFSSYAMAWFRQPPGKEREFVASISWSGENTNYRNSVKGRFTISRDNAKNTVYLQMNSLKPEDTAVYYCAAKIAKTYPDNWYWTKSNNYNYWGQGTQVTVSS"
